Measurements from doi:10.1101/2021.11.04.467245 (bioRxiv, 2021).

Experiments:
[1] = molecular target: T1, TwinStrep-BICD2 WT (mouse), Q921C5; assay: SEC-MALS; details: remark: other sources report otherwise
T1 chain: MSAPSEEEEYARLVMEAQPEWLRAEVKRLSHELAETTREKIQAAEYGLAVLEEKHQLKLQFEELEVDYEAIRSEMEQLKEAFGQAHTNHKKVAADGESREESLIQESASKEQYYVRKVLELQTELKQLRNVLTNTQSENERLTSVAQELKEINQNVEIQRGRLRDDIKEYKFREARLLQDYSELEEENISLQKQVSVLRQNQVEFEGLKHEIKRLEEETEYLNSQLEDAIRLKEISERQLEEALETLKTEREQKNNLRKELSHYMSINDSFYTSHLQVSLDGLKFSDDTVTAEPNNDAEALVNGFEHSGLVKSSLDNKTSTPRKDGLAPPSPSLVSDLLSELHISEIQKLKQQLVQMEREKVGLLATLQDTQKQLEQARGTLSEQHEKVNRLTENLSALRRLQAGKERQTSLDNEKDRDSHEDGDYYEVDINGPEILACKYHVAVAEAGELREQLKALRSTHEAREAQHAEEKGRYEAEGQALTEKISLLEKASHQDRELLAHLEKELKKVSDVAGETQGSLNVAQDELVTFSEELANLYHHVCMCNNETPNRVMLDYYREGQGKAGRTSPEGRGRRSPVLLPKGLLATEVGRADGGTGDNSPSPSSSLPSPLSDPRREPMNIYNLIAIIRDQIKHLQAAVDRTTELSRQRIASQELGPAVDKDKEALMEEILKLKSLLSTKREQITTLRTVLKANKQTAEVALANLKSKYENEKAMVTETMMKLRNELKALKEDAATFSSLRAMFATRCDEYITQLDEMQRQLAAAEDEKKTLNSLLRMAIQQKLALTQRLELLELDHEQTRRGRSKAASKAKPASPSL

SEC-MALS = molecular target: the molecule itself; assay: SEC-MALS

Row | Binder | stoichiometry N [1] | stoichiometry N (SEC-MALS)
1 | TwinStrep-BICD2 WT, Q921C5 1-820 (natural protein) MSAPSEEEEYARLVMEAQPEWLRAEVKRLSHELAETTREKIQAAEYGLAVLEEKHQLKLQFEELEVDYEAIRSEMEQLKEAFGQAHTNHKKVAADGESREESLIQESASKEQYYVRKVLELQTELKQLRNVLTNTQSENERLTSVAQELKEINQNVEIQRGRLRDDIKEYKFREARLLQDYSELEEENISLQKQVSVLRQNQVEFEGLKHEIKRLEEETEYLNSQLEDAIRLKEISERQLEEALETLKTEREQKNNLRKELSHYMSINDSFYTSHLQVSLDGLKFSDDTVTAEPNNDAEALVNGFEHSGLVKSSLDNKTSTPRKDGLAPPSPSLVSDLLSELHISEIQKLKQQLVQMEREKVGLLATLQDTQKQLEQARGTLSEQHEKVNRLTENLSALRRLQAGKERQTSLDNEKDRDSHEDGDYYEVDINGPEILACKYHVAVAEAGELREQLKALRSTHEAREAQHAEEKGRYEAEGQALTEKISLLEKASHQDRELLAHLEKELKKVSDVAGETQGSLNVAQDELVTFSEELANLYHHVCMCNNETPNRVMLDYYREGQGKAGRTSPEGRGRRSPVLLPKGLLATEVGRADGGTGDNSPSPSSSLPSPLSDPRREPMNIYNLIAIIRDQIKHLQAAVDRTTELSRQRIASQELGPAVDKDKEALMEEILKLKSLLSTKREQITTLRTVLKANKQTAEVALANLKSKYENEKAMVTETMMKLRNELKALKEDAATFSSLRAMFATRCDEYITQLDEMQRQLAAAEDEKKTLNSLLRMAIQQKLALTQRLELLELDHEQTRRGRSKAASKAKPASPSL | 2 | 
2 | TwinStrep-BICD2 S102D (natural protein) MSAPSEEEEYARLVMEAQPEWLRAEVKRLSHELAETTREKIQAAEYGLAVLEEKHQLKLQFEELEVDYEAIRSEMEQLKEAFGQAHTNHKKVAADGESREEDLIQESASKEQYYVRKVLELQTELKQLRNVLTNTQSENERLTSVAQELKEINQNVEIQRGRLRDDIKEYKFREARLLQDYSELEEENISLQKQVSVLRQNQVEFEGLKHEIKRLEEETEYLNSQLEDAIRLKEISERQLEEALETLKTEREQKNNLRKELSHYMSINDSFYTSHLQVSLDGLKFSDDTVTAEPNNDAEALVNGFEHSGLVKSSLDNKTSTPRKDGLAPPSPSLVSDLLSELHISEIQKLKQQLVQMEREKVGLLATLQDTQKQLEQARGTLSEQHEKVNRLTENLSALRRLQAGKERQTSLDNEKDRDSHEDGDYYEVDINGPEILACKYHVAVAEAGELREQLKALRSTHEAREAQHAEEKGRYEAEGQALTEKISLLEKASHQDRELLAHLEKELKKVSDVAGETQGSLNVAQDELVTFSEELANLYHHVCMCNNETPNRVMLDYYREGQGKAGRTSPEGRGRRSPVLLPKGLLATEVGRADGGTGDNSPSPSSSLPSPLSDPRREPMNIYNLIAIIRDQIKHLQAAVDRTTELSRQRIASQELGPAVDKDKEALMEEILKLKSLLSTKREQITTLRTVLKANKQTAEVALANLKSKYENEKAMVTETMMKLRNELKALKEDAATFSSLRAMFATRCDEYITQLDEMQRQLAAAEDEKKTLNSLLRMAIQQKLALTQRLELLELDHEQTRRGRSKAASKAKPASPSL |  | 2
